Measured values: patent US20120214173A1, “Methods of Identifying Modulators of an Ehd Polypeptide” (priority 2007, published 2012)
Where a chain is given by its changes, count along the chain named. Numbers in names are those of the source. Entries after “also recorded” stand apart in the source; their conditions may differ. One block for each molecule: values may come before it.

Assays:
[1] = Negative stain EM of liposome tubulation/oligomerisation; conditions: 2.5 μM protein, PS liposomes
Procedure: (§1) Amino acid numbering corresponds to mouse EHD2. b, EHD2 binds to adenine nucleotides, as determined by ITC. For clarity, ΔΔH=ΔHn−ΔH1 is plotted. […] Images were acquired close to the basal cell surface. f, Nucleotide hydrolysis was measured by HPLC in the absence (empty symbols) or presence of Folch liposomes (filled symbols). Data represent mean and standard deviation for two (intrinisic reactions) or three (stimulated reactions) independent experiments.
EHD2 was incubated with the indicated liposomes in the presence and absence of nucleotides and analysed by EM as described in Methods. a, EHD2 deformed PS liposomes into tubular networks, here in the presence of ATP-γ-S. b, Enlarged views of the indicated area in a. Note the presence of regularly spaced EHD2 rings (some are indicated with arrows). This even spacing may be due to the curvature stress generated by an EHD2 ring along the axis of the lipid tubule which might disfavour binding of the next ring in the direct vicinity (see below). c, Some of the lipid tubules (especially at higher protein concentration) were tightly packed with EHD2 oligomeric rings. d,e In the presence of ADP and in the absence of nucleotide (f,g), EHD2 also tubulated PS liposomes and formed ring-like structures around the tubules. e,g are enlarged views of the indicated areas in d and f, respectively.
(§2) Reactions were started by the addition of the protein to the final reaction mix and nucleotide hydrolysis was followed using standard HPLC measurement^27. Initial rates were determined by applying a linear fit to data points up to 40% nucleotide hydrolysis. For electron microscopic studies, 2.5 μM EHD2 in 20 mM HEPES (pH 7.5), 150 mM NaCl, 1 mM MgCl2 was incubated for 15 min at 25° C. in the presence of 1 mM nucleotide and 0.05 mg/ml (final concentration) of the indicated liposomes. Samples were spotted on carbon-coated copper grids (Canemco and Marivac) and negatively stained with 2% uranyl acetate.
Nucleotide-independence of liposome tubulation in vitro is also observed for dynamin^16. No noticeable tubule fission or alteration in tubule diameter was found for EHD2 in the presence of ATP. […] Folch liposomes were also tabulated by EHD2. However, with synthetic liposomes containing only 2.5% PIP2 and in the absence of PS, the amount of EHD binding was reduced, and in this less favourable binding condition we only observed tubulation in the presence of ATP-γ-S and ADP but not in the absence of nucleotides (FIG. 7).

EHD2 = biological target: T1, EHD2 (Mus musculus, UniProt Q8BH64); assay: Multiple turnover ATPase assay (nucleotide hydrolysis by HPLC) with or without Folch liposomes; type: biochemical; conditions: for kobs stimulated ATPase reaction: presence of 1 mg/ml Folch (or PS) liposomes; for membrane-stimulated ATPase activity (in words) / decrease in the stimulated ATPase rate versus wt: presence of Folch liposomes
T1 construct: Mouse EHD2 full-length protein and all mutants were expressed as N-terminal His-fusions followed by a PreScission cleavage site; His (N, cleaved yes); made in house; host or cells: Escherichia coli BL21 DE3 Rosetta
T1 sequence (Q8BH64 1-543): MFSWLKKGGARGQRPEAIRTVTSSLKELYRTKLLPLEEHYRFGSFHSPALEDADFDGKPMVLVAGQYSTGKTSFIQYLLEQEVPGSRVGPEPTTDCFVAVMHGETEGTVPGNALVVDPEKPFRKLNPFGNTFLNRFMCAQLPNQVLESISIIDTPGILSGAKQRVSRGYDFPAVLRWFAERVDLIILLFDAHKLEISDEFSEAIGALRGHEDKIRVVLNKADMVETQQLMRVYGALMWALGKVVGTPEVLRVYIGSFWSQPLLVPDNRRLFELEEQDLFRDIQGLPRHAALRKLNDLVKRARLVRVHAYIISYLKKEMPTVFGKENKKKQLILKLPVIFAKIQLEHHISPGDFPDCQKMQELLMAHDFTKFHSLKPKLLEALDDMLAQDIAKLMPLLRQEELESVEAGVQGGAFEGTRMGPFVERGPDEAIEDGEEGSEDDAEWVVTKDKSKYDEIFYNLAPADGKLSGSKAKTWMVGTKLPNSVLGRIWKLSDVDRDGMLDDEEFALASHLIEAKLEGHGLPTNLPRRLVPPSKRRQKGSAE
Procedure: as §1
(§3) ITC measurements were performed at 10° C. in 20 mM HEPES (pH 7.5), 300 mM NaCl, 2 mM MgCl2. Liposome binding assays were performed as described previously (www.endocytosis.org). Multiple turnover ATPase assays were performed in 20 mM HEPES (pH 7.5), 135 mM NaCl, 15 mM KCl, 1 mM MgCl2 at 30° C. with 10 μM EHD2 (or mutants) as enzyme and 100 μM ATP as substrate, in the absence or presence of 1 mg/ml Folch liposomes (Sigma-Aldrich).
as §2
We next monitored the effect of membrane-binding on the ATPase activity of. EHD2 under multiple-turnover conditions (10-fold excess of ATP over EHD2), in the presence and absence of Folch liposoines (FIG. 1f). The intrinsic/background ATPase activity is extremely slow (kobs=0.7 h^−1) but is stimulated 8-fold in the presence of Folch or PS liposomes (kobs=5.6 h^−1).

HeLa cells = assay: Over-expression of EGFP-tagged EHD2 and mutants in HeLa cells (confocal / live imaging); type: cell-based; conditions: for distribution of EGFP-tagged protein over-expressed in HeLa cells: 24 h after transfection, fixed; for dynamics of tubules and puncta by EPI-fluorescence live imaging: over-expressed 24 h, imaged approximately 30 min
Procedure: as §1
(§4) Nucleotide hydrolysis was measured as described in FIG. 1f. In vitro tubulation activity of PS liposomes was analysed as described in FIG. 1d. f, EGFP-tagged mutants were over-expressed in HeLa cells. […] For each construct, three independent experiments with ≈50 cells/experiments were analysed.
Ultracentrifugation. Sedimentation velocity experiments were performed in a Beckman Optima XLA ultracentrifuge, using an An-60Ti rotor. Centrifugation was at 50,000 rev×min and 5° C. at an EHD2 concentration of 15 μM, with scans as fast as possible (˜1.5 min intervals). The data were analysed using DCDT+ v.2^44,45, with the partial specific volume for the protein (from the amino acid composition) and solvent density and viscosity calculated using Sednterp^46. Selected scans (at equal, ˜15 min intervals), and of g(s20,w) (the amount of material sedimenting between s20,w and (s20,w+δs)) and also the residuals for fitting the data with DCDT+, were plotted with the program profit v.5.6.7 (Quantum soft, Switzerland). Cell biology. N-terminal EGFP-tagged EHD2 and all mutants were over-expressed in HeLa cells from the pEGFP-C3 vector (Clontech). HeLa cells were grown as per ECACC guidelines with 10% fetal bovine serum and transfected using Genejuice (Novagen) for transient protein expression. 24 h after transfection, cells were fixed for 10 min at 37° C. in 3% paraformaldehyde and mounted. All confocal images were taken sequentially using a BioRad Radiance system and LaserSharp software (Biorad). For real-time microscopy, transfected cells on glass-bottom Petri dishes (WillCo Wells BV, Amsterdam) were washed with 25 mM HEPES (pH 7.5), 125 mM NaCl, 5 mM KCl, 10 mM D-glucose, 1 mM MgCl2, 2 mM CaCl), and epifluorescence images were taken using an Olympus IX70 microscope (Southhall, UK) and Argon laser (Melles Griot, Carlsbad, Calif.) with a Princeton instruments (Trenton, N.J.) cooled I-PentaMAX camera with MetaMorph software (Universal imaging).
EHD2 wild-type was over-expressed in HeLa cells for 24 h and imaged by EPI-fluorescence for approximately 30 min.
EHD2 T94A was over-expressed in HeLa cells for 24 h and imaged by EPI-fluorescence for approximately 30 min. […] EHD2 I157Q was over-expressed in HeLa cells for 24 h and imaged by EPI-fluorescence for approximately 30 min.

[2] = Liposome co-sedimentation (membrane binding) assay; conditions: Folch / PS liposomes
Procedure: as §1, §4, §3
Mouse full-length EHD2 was expressed in bacteria and purified to homogeneity (FIG. 5). The purified protein was nucleotide-free as judged by HPLC analysis. […] It was previously reported that EHDs—despite having a predicted G-domain—bind to adenine nucleotides^15. […] We still refer to this domain as a G-domain because the sequence and fold (see below) are clearly similar to other G-domains. […] Using synthetic liposomes containing various different phosphatidyl-inositols (PI) (FIG. 1c) we observed best binding to liposomes containing PI(4,5)bisphosphate (PIP2).

[3] = 10 μM protein, 100 μM ATP, 30° C.

B1: EHD2 double mutant of the two side-site xPF motifs (F122A/F128A) (protein)
chain: T1 sequence (Q8BH64 1-543) with F122A, F128A
liposome tubulation / oligomerisation by EM [1]: did not find any regular oligomers on liposomes
membrane-stimulated ATPase activity (Q8BH64): did not show any membrane-stimulated ATPase activity
membrane-stimulated ATPase activity (in words) (EHD2): did not show any membrane-stimulated ATPase activity
membrane-stimulated ATPase activity (in words) (EHD2; listed as mutation of the side site xPFs motif): completely prevented the membrane-stimulated ATPase reaction

B2: I157Q: EHD2 mutant with re-introduced catalytic glutamine in the active site (protein, UniProt Q8BH64 1-543, looked up, variant I157Q)
EH domain-containing protein 2: T1 sequence (Q8BH64 1-543) with I157Q
liposome tubulation / oligomerisation by EM [1]: tubulated liposomes
intrinsic/basal ATPase activity (in words) (EHD2; absence of membranes): hydrolysed ATP faster than wild-type
membrane-stimulated ATPase activity (in words) (EHD2): not further stimulated by membranes
distribution of EGFP-tagged protein over-expressed in HeLa cells (HeLa cells): exclusively punctate staining; also recorded: labelled only very short tubules and puncta
dynamics of tubules and puncta by EPI-fluorescence live imaging (HeLa cells): No tubules can be found and the puncta are mostly motile

B3: T72A: EHD2 mutant in the phosphate binding (P-)loop, nucleotide-free (protein, UniProt Q8BH64 1-543, looked up, variant T72A)
EH domain-containing protein 2: T1 sequence (Q8BH64 1-543) with T72A
membrane-stimulated ATPase activity (in words) (EHD2): did not show stimulation of ATP hydrolysis; also recorded: did not show membrane-stimulated ATPase activity
distribution of EGFP-tagged protein over-expressed in HeLa cells (HeLa cells): cytoplasmic distribution
binding to liposomes (co-sedimentation) [2]: bound to Folch liposomes

Now from value to molecule, other results behind:

stimulation of intrinsic ATP reaction by liposomes (EHD2; Folch or PS liposomes versus no liposomes): 8 fold
stimulated nucleotide hydrolysis slower than dynamin (EHD2; stimulated condition, versus dynamin GTP hydrolysis): 600 fold
binding to liposomes (co-sedimentation) [2]: efficient binding
Molecule: EHD2: mouse full-length EHD2 expressed in bacteria; EGFP-tagged in HeLa cells
liposome tubulation / oligomerisation by EM [1]: deforms PS liposomes in a nucleotide-independent manner into 20 nm-diameter tubules
kobs intrinsic/background ATPase activity (EHD2; 10 μM protein, 100 μM ATP, 30° C., absence of liposomes): 0.7 h⁻¹
kobs stimulated ATPase reaction (EHD2; [3]): 5.6 h⁻¹
kobs stimulated ATPase reaction (EHD2; 10 μM protein, 100 μM ATP, 30° C., listed as wt): 5.4 h⁻¹
distribution of EGFP-tagged protein over-expressed in HeLa cells (HeLa cells): localised to puncta and tubular networks close to the cell surface; also recorded: marked punctate and tubular structures
dynamics of tubules and puncta by EPI-fluorescence live imaging (HeLa cells): Some of the tubules and puncta are dynamic

decrease in the stimulated ATPase rate versus wt (EHD2): 75%
binding to liposomes (co-sedimentation) [2]: bound less to liposomes
B4: K328D: EHD2 polybasic cluster mutant (protein, UniProt Q8BH64 1-543, looked up, variant K328D)
EH domain-containing protein 2: T1 sequence (Q8BH64 1-543) with K328D
kobs stimulated ATPase reaction (EHD2; [3]): 1.6 h⁻¹
membrane-stimulated ATPase activity (in words) (EHD2): reduced ATPase stimulation
distribution of EGFP-tagged protein over-expressed in HeLa cells (HeLa cells): completely cytoplasmic distribution

decrease in the stimulated ATPase rate versus wt (EHD2): 40%
binding to liposomes (co-sedimentation) [2]: bound less to liposomes
B5: F322A: EHD2 membrane-binding site mutant (protein, UniProt Q8BH64 1-543, looked up, variant F322A)
EH domain-containing protein 2: T1 sequence (Q8BH64 1-543) with F322A
kobs stimulated ATPase reaction (EHD2; [3]): 3.0 h⁻¹
membrane-stimulated ATPase activity (in words) (EHD2): reduced ATPase stimulation
distribution of EGFP-tagged protein over-expressed in HeLa cells (HeLa cells): completely cytoplasmic distribution
